Measured values taken from article PMC3983370.

Target: HCoV-OC43 nucleocapsid (N) protein WT (Human coronavirus OC43, UniProt P33469 1-448)
Experiment: SPR

Chain of HCoV-OC43 nucleocapsid (N) protein WT (P33469 whole entry): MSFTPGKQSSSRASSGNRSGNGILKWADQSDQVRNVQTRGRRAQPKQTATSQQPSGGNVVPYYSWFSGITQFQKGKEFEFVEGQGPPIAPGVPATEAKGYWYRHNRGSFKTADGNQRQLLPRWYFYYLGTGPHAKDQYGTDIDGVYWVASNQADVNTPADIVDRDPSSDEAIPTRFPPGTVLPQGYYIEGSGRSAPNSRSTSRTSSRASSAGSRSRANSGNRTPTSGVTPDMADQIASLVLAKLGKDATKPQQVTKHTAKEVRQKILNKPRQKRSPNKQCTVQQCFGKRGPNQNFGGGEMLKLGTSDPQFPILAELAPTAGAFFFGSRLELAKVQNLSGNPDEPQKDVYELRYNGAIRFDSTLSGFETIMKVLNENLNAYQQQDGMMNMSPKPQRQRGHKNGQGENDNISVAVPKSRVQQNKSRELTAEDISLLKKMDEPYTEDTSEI

B1: (UCUAAAC)4 repeated intergenic sequence (ssRNA)
RNA: UCUAAACUCUAAACUCUAAACUCUAAAC
  Kd: 11.7 ± 0.8 nM
